# Reference: patent US20250026827A1 (Alector, published 2025)
# Where two headings read alike, the source gives them in different places.
# T1: mouse SIRPβ1 on CHO cells (mouse)
# T1 construct: Whole entry
# T1 chain: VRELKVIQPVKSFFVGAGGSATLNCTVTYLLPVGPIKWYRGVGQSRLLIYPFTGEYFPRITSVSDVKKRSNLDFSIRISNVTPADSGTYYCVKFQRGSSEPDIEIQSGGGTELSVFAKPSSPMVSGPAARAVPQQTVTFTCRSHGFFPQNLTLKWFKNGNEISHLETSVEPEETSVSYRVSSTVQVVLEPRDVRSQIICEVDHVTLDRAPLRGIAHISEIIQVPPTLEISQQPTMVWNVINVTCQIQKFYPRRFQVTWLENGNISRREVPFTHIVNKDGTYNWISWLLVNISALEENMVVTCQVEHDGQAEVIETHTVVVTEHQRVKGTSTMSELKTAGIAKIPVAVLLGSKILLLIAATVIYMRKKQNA
# T2: mouse SIRPα on cells (mouse, UniProt P97797 32-513)
# T2 construct: whole, on cells
# T2 sequence (looked up): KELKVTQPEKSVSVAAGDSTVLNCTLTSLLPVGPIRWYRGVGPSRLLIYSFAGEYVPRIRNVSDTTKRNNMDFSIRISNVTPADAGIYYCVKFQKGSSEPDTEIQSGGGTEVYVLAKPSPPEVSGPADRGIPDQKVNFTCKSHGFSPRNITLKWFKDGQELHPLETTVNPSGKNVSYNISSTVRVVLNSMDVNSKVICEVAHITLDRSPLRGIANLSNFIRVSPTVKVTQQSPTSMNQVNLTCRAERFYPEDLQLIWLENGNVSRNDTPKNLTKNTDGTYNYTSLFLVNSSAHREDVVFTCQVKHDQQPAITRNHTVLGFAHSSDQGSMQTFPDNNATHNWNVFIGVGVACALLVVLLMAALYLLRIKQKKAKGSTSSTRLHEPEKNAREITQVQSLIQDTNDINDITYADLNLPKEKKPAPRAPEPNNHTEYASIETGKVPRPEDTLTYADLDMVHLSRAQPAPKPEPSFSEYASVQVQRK
# T3: mouse SIRPα D1-Fc (mouse, UniProt P97797 32-150, limits assumed)
# T3 construct: domain: D1
# T3 sequence (looked up): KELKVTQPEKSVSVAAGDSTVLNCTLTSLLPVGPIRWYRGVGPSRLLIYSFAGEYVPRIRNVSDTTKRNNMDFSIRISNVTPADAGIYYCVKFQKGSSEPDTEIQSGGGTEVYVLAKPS
# How the values were obtained:
# [1] = molecular target: T4, Soluble, human SIRPβ1-Fc isoform 1 (O00241) (human, UniProt O00241 30-371, limits assumed); experiment: ELISA, antigen coated
# T4 construct: Whole entry named; also called human SIRPβ1 isoform 1
# T4 sequence (O00241 30-371 limits assumed, one chain of several): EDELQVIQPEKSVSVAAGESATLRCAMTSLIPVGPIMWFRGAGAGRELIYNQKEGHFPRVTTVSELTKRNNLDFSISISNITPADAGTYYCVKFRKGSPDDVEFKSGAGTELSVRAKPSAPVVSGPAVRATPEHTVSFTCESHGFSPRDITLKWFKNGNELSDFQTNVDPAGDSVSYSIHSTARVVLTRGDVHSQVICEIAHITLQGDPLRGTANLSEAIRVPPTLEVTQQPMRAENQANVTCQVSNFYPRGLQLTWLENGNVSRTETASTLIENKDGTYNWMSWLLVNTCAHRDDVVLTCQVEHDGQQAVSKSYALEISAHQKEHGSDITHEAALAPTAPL
# From the text: Recombinant antigen based on the sequence of SIRPβ1 isoform 1 was used for selecting anti-SIRPβ1 antibodies from yeast library pools. To ascertain if the selected anti-SIRPβ1 antibodies cross-reacted with other isoforms of human SIRPβ1 or with cynomolgus SIRPβ1, recombinant antigens based on human SIRPβ1 isoform 3 sequence and cynomolgus SIRPβ1 isoform 1 sequence were produced by transient transfection in HEK293 cells. Purified, Fc-tagged recombinant proteins were adsorbed onto 96-well plates at 1 μg/mL overnight at 4° C. Plates were subsequently washed with PBS+0.05% Tween-20 and blocked with 1% BSA+PBS for 2 hours at room temperature. Antibodies diluted in blocking buffer at 1 μg/mL were added to wells, serially diluted, and allowed to bind antigen overnight at 4° C. The following day, the primary antibodies were removed and anti-human kappa light chain antibody conjugated to horseradish peroxidase diluted 1:10,000 in blocking buffer were added to wells and incubated for 1 hour at room temperature. Plates were washed with PBS+0.05% Tween-20 and 100 μL of TMB substrate solution was added to wells to generate a colorimetric signal proportional to amount of anti-SIRPβ1 antibody bound to antigen. Once the reaction reached an appropriate color intensity, 100 μL of Stop solution was added to quench the enzyme.
# (§1) Eight anti-SIRPβ1 antibodies (four parental antibodies and four corresponding affinity matured antibodies) were selected for analysis.
# [2] = molecular target: T5, human SIRPβ1-Fc isoform 3 (Q5TFQ8) (human, UniProt Q5TFQ8 30-371, limits assumed); experiment: ELISA on plate-coated huSirpB-Fc (Q5TFQ8.1), anti-human kappa-HRP, A450
# T5 construct: Whole entry named; made in HEK293 cells; also called human SIRPβ1 isoform 3
# T5 sequence (Q5TFQ8 30-371 limits assumed, one chain of several): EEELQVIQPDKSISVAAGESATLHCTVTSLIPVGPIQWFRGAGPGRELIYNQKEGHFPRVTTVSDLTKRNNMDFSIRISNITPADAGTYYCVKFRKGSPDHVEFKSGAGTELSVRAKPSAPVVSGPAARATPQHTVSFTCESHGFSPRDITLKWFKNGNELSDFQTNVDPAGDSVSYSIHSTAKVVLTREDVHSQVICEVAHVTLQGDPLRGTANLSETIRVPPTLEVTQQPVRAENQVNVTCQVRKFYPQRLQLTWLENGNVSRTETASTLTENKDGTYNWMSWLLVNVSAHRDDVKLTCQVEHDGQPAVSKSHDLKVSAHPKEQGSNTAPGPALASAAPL
# Method: To ascertain if the selected anti-SIRPβ1 antibodies cross-reacted with other isoforms of human SIRPβ1 or with cynomolgus SIRPβ1, recombinant antigens based on human SIRPβ1 isoform 3 sequence and cynomolgus SIRPβ1 isoform 1 sequence were produced by transient transfection in HEK293 cells. Purified, Fc-tagged recombinant proteins were adsorbed onto 96-well plates at 1 μg/mL overnight at 4° C. Plates were subsequently washed with PBS+0.05% Tween-20 and blocked with 1% BSA+PBS for 2 hours at room temperature. Antibodies diluted in blocking buffer at 1 μg/mL were added to wells, serially diluted, and allowed to bind antigen overnight at 4° C. The following day, the primary antibodies were removed and anti-human kappa light chain antibody conjugated to horseradish peroxidase diluted 1:10,000 in blocking buffer were added to wells and incubated for 1 hour at room temperature. Plates were washed with PBS+0.05% Tween-20 and 100 μL of TMB substrate solution was added to wells to generate a colorimetric signal proportional to amount of anti-SIRPβ1 antibody bound to antigen. Once the reaction reached an appropriate color intensity, 100 μL of Stop solution was added to quench the enzyme.
# as §1
# [3] = molecular target: T6, human SIRPα domain 1 (D1) Fc fusion (human, UniProt P78324 32-149); experiment: Octet, IgG avid
# T6 construct: also called human SIRPα D1-Fc; Human SIRPα Fc; not shown: C-terminal human IgG1 Fc
# [4] = molecular target: T1, mouse SIRPβ1 on CHO cells; experiment: flow cytometry
# human SIRPα on cells [5] = molecular target: T7, human SIRPα on cells (human, UniProt P78324 31-504); experiment: flow cytometry
# T7 construct: Whole entry
# [6] = molecular target: T8, human SIRPβ1 isoform 1 on cells (human, UniProt O00241 30-398); experiment: cell binding titration; target not given
# T8 construct: On CHO cells (low level), on BWZ/BW5147.G.1.4 cells (reporter cells co-express human DAP12) or on primary human myeloid cells; also called huSIRPβ1; BWZ-huSIRPβ1
# T8 sequence (O00241 30-398): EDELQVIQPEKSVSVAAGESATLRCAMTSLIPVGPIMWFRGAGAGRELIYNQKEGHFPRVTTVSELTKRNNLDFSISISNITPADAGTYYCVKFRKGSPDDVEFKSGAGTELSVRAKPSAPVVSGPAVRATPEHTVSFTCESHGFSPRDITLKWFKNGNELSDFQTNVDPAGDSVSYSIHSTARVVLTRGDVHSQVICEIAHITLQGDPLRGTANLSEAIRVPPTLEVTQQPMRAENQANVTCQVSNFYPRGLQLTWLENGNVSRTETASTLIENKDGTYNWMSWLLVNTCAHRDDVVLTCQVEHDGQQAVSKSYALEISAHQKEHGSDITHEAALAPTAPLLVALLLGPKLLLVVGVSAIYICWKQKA
# [7] = molecular target: T8, human SIRPβ1 isoform 1 on cells; experiment: flow cytometry
# [8] = molecular target: T1, mouse SIRPβ1 on CHO cells; experiment: flow cytometry
# human SIRPα on cells [9] = molecular target: T7, human SIRPα on cells; experiment: flow cytometry; remark: listed apart in the source
# human SIRPα on cells [10] = molecular target: T7, human SIRPα on cells; experiment: flow cytometry on BWZ cells overexpressing human SIRPα, fluorescent secondary antibody, MFI
# Method: (§2) To determine antigen specificity of anti-SIRPβ1 antibodies of the present disclosure, cell-based affinity measurements were performed to ascertain the apparent affinities of affinity-matured anti-SIRPβ 1 antibodies to cell surface-expressed antigen. BW5147.G.1.4 cells, an immortalized mouse T-cell line, were engineered to overexpress human SIRPβ1 (BWZ-huSIRPβ1) or human SIRPα (BWZ-huSIRPα). Jurkat cells, an immortalized human T cell line, endogenously express SIRPγ.
# (§3) In these experiments, two antibodies previously described were used as positive controls: antibody 18D5 (an anti-SIRPβ antibody that cross-reacts with SIRPα and SIRPβ) and antibody KWAR23 (an anti-SIRPβ antibody that cross-reacts with SIRPα, SIRPβ, and SIRPγ). These antibodies were recombinantly produced on a human IgG4 backbone. […] Serial dilutions of each of the anti-SIRPβ1 monoclonal antibodies and control antibodies were added to 10⁵ cells and allowed to achieve binding equilibrium at 4° C. After addition of fluorescently-labeled secondary antibody and brief washing steps, MFI values as a function of titrated antibody concentration were recorded via FACS analysis.
# (§4) Receptor bound antibodies were detected by staining cells with anti-human IgG PE secondary antibody (Southern Biotech). Curves were fit using nonlinear regression analysis with Graphpad Prism 6 software.
# [11] = molecular target: T8, human SIRPβ1 isoform 1 on cells; experiment: flow cytometry titration, BWZ-huSIRPβ1 cells
# Method: as §3
# In Table 14 below, EC50 values assign relative affinity by adding increasing concentrations of antibody variants to cells overexpressing SIRPβ 1. Receptor bound antibodies were detected by staining cells with anti-human IgG PE secondary antibody (Southern Biotech). Curves were fit using nonlinear regression analysis with Graphpad Prism 6 software.
# SIRPγ on Jurkat cells = molecular target: T9, SIRPγ on Jurkat cells (human, UniProt Q9P1W8 29-387); experiment: flow cytometry on Jurkat cells (endogenous SIRPγ), fold over isotype (MFI)
# T9 construct: whole, on cells
# T9 sequence (Q9P1W8 29-387): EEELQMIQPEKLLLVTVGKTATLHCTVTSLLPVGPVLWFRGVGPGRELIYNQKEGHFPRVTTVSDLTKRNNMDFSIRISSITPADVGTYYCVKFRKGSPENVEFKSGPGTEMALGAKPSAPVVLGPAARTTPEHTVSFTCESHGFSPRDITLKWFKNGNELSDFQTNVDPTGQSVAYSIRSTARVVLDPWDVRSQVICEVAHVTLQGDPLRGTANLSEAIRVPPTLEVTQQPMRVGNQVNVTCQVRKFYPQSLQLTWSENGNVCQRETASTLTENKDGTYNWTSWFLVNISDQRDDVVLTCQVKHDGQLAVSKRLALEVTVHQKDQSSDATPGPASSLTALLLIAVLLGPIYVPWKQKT
# Method: as §2, §3, §4
# [12] = molecular target: T10, human SIRPβ1 domain 1 (D1) Fc fusion (human, UniProt O00241 30-148); experiment: Octet, IgG avid
# T10 construct: Made in HEK293/T cells with a heterologous signal peptide; also called Human SIRPβ1 D1-Fc; Human SIRPβ1-Fc; not shown: C-terminal human IgG1 Fc
# T10 sequence (O00241 30-148 limits assumed): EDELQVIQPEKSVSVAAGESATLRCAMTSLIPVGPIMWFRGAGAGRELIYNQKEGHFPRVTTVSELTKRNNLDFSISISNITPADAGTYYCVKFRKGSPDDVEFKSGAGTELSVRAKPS
# mouse SIRPα on cells [13] = molecular target: T2, mouse SIRPα on cells; experiment: flow cytometry;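 as to FOB: antibodies tested at 1 µg/ml for 30 min on ice against receptor-expressing cells, detected with a PE-labelled secondary antibody, read as mean fluorescence intensity relative to background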
# [14] = molecular target: T8, human SIRPβ1 isoform 1 on cells; experiment: flow cytometry; remark: listed apart in the source
# [15] = molecular target: T1, mouse SIRPβ1 on CHO cells; experiment: flow cytometry
# human SIRPα on cells [16] = molecular target: T7, human SIRPα on cells; experiment: flow cytometry; remark: listed apart in the source
# mouse SIRPα on cells [17] = molecular target: T2, mouse SIRPα on cells; experiment: flow cytometry; remark: listed apart in the source;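 as to FOB: antibodies tested at 1 µg/ml for 30 min on ice against receptor-expressing cells, detected with a PE-labelled secondary antibody, read as mean fluorescence intensity relative to background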
# mouse SIRPα D1-Fc = molecular target: T3, mouse SIRPα D1-Fc; experiment: Octet
# Method: Briefly, Octet affinity measurements were performed by loading IgGs on-line onto AHQ sensors. Sensors were equilibrated off-line in assay buffer for 30 min and then monitored on-line for 60 seconds for baseline establishment. For avid binding measurement, sensors with loaded IgGs were exposed to 100 nM antigen (human SIRPα domain 1 (D1) Fc fusion or SIRPβ1 domain 1 (D1) Fc fusion) for 3 min, and then transferred to assay buffer for 3 min for off-rate measurement. Additional avid binding was determined by loading biotinylated SIRPβ1 monomer on SA sensors and exposing to 100 nM IgG in solution. Monovalent binding measurements were obtained by loading human SIRPα- or SIRPβ1-Fc fusion antigens onto AHQ sensor, followed by exposure to 100 nM anti-SIRPβ1 antibody Fab. Additional monovalent measurements were made by loading biotinylated human SIRPα or SIRPβ1 monomer to SA sensor followed by exposure to 100 nM Fab in solution. Kinetics data were fit using a 1:1 binding model in the data analysis software provided by ForteBio (ForteBio Data Analysis Software 7.0).
Binder,EC50 [1],binding result [2],binding result [3],binding result [4],binding result (human SIRPα on cells [5]),EC50 [6],FOB [7],FOB [8],FOB (human SIRPα on cells [9]),binding result (human SIRPα on cells [10]),EC50 [11],binding result (SIRPγ on Jurkat cells),EC50 (read off the curve) (human SIRPα on cells [10]),Kd [12],FOB (mouse SIRPα on cells [13]),FOB [14],FOB [15],FOB (human SIRPα on cells [16]),binding result (mouse SIRPα on cells [17]),binding result (mouse SIRPα D1-Fc)
"SB-1-2 (antibody, V domains shown, IgG) VH: QVQLVESGGGVVQPGRSLRLSCAASGFTFGSFGMNWVRQAPGKGLEWVSAITASGGSTFYADSVKGRFTISRDNSKNTLYLQMNSLRAEDTAVYYCAKDFTEVVGWLGMDVWGQGTTVTVSS VL: EIVMTQSPGTLSLSPGERATLSCRASQSVSSSYLAWYQQKPGQAPRLLIYGASSRATGIPDRFSGSGSGTDFTLTISRLEPEDFAVYYCQLLGSSPRTFGGGTKVEIK",0.045 nM,no binding (tested: 1 ug/mL),no binding (tested: 100 nM),no binding (tested: 1 ug/ml),no binding (tested: 1 ug/ml),0.059 nM,4 fold over background,1 fold over background,1 fold over background,,,,,,,,,,,
"SB-1-3 (antibody, V domains shown, IgG) VH: EVQLVESGGGLVKPGGSLRLSCAASGFTFSAYGMNWVRQAPGKGLEWVSAITSSGRSTYYADSVKGRFTISRDNSKNTLYLQMNSLRAEDTAVYYCAKDFTEVVGWLGMDVWGQGTTVTVSS VL: EIVMTQSPGTLSLSPGERATLSCRASQSVSSSYLAWYQQKPGQAPRLLIYGASSRATGIPDRFSGSGSGTDFTLTISRLEPEDFAVYYCQLLGSSPRTFGGGTKVEIK",,,no binding (tested: 100 nM),no binding (tested: 1 ug/ml),,0.062 nM,4 fold over background,2 fold over background,0 fold over background,no binding (tested: Log nM about 0.8 (about 7 nM)),0.0284 nM,no binding (tested: Log nM about 1.8 (about 60 nM)),,,,,,,,
"18D5 (antibody, V domains shown) VH: QVQLQQPGAELVRPGSSVKLSCKASGYTFTSYWVHWVKQRPIQGLEWIGNIDPSDSDTHYNQKFKDKASLTVDKSSSTAYMQLSSLTFEDSAVYYCVRGGTGTMAWFAYWGQGTLVTVSA VL: DVVMTQTPLSLPVSLGDQASISCRSSQSLVHSYGNTYLYWYLQKPGQSPKLLIYRVSNRFSGVPDRFSGSGSGTDFTLKISRVEAEDLGVYFCFQGTHVPYTFGSGTKLEIK",,,,,,,,,,,0.477 nM,,~0.2 nM,,,,,,,
"SB-8 (antibody, V domains shown, IgG; also called SB-8 (p)) VH: QVQLQESGPGLVKPSETLSLTCAVSGYSISSGYYWGWIRQPPGKGLEWIGSIYHSGSTYYNPSLKSRVTISVDTSKNQFSLKLSSVTAADTAVYYCARGGAMTPAGMDVWGQGTTVTVSS VL: EIVMTQSPGTLSLSPGERATLSCRASQSVSSSYLAWYQQKPGQAPRLLIYGASNRATGIPDRFSGSGSGTDFTLTISRLEPEDFAVYYCQQVYSSPYTFGGGTKVEIK",0.022 nM,no binding (tested: 1 ug/mL),,no binding (tested: 1 ug/ml),,0.441 nM,2 fold over background,2 fold over background,1 fold over background,,,,,2.72 nM,1.2 fold over background,4.1 fold over background,1.7 fold over background,2.1 fold over background,no binding (tested: 1 ug/ml),no binding (tested: 100 nM)
"SB-8-15 (antibody, V domains shown, IgG) VH: QVQLQESGPGLVKPSETLSLTCAVSGYSISAHYYWGWIRQPPGKGLEWIGSIYQSGHTYYNPSLKSRVTISVDTSKNQFSLKLSSVTAADTAVYYCARGGAMTPAGMDVWGQGTTVTVSS VL: EIVMTQSPGTLSLSPGERATLSCRASQSVSSSYLAWYQQKPGQAPRLLIYGASNRATGIPDRFSGSGSGTDFTLTISRLEPEDFAVYYCQQVYSSPYTFGGGTKVEIK",,,no binding (tested: 100 nM),no binding (tested: 1 ug/ml),,0.737 nM,7 fold over background,1 fold over background,1 fold over background,no binding (tested: Log nM about 0.8 (about 7 nM)),0.596 nM,no binding (tested: Log nM about 1.8 (about 60 nM)),,,,,,,,
"SB-40-20 (antibody, V domains shown, IgG) VH: QVQLVQSGAEVKKPGASVKVSCKASGYTFTSFYISWVRQAPGQGLEWMGIINPSSGHTNYAQKLQGRVTMTTDTSTSTAYMELSSLRSEDTAVYYCARDTGEYSYSPHGMDVWGQGTTVTVSS VL: EIVLTQSPATLSLSPGERATLSCRASQSVSSYLAWYQQKPGQAPRLLIYDSSNRATGIPARFSGSGSGTDFTLTISSLEPEDFAVYYCQQRDEHPPWTFGGGTKVEIK",,,no binding (tested: 100 nM),no binding (tested: 1 ug/ml),,0.405 nM,3 fold over background,2 fold over background,1 fold over background,no binding (tested: Log nM about 0.8 (about 7 nM)),8.7 nM,no binding (tested: Log nM about 1.8 (about 60 nM)),,,,,,,,
"SB-2-7 (antibody, V domains shown, IgG) VH: EVQLLESGGGLVQPGGSLRLSCAASGFTFARYGMHWVRQAPGKGLEWVSAISGLAGPTYADSVKGRFTISRDNSKNTLYLQMNSLRAEDTAVYYCARDQTAAAAIWGMDVWGQGTTVTVSS VL: EVVLTQSPGTLSLSPGERATLSCRASQSVSSSYLAWYQQKPGQAPRLLIYGASSRATGIPDRFSGSGSGTDFTLTISRLEPEDFAVYYCQQSSSHPFTFGGGTKVEIK",0.029 nM,no binding (tested: 1 ug/mL),no binding (tested: 100 nM),no binding (tested: 1 ug/ml),no binding (tested: 1 ug/ml),0.132 nM,5 fold over background,1 fold over background,1 fold over background,,,,,,,,,,,
"SB-2-8 (antibody, V domains shown, IgG) VH: QVQLVESGGGVVQPGRSLRLSCAASGFTFLDYGMHWVRQAPGKGLEWVSAISAFAGSTYADSVKGRFTISRDNSKNTLYLQMNSLRAEDTAVYYCARDQTAAAAIWGMDVWGQGTTVTVSS VL: EVVLTQSPGTLSLSPGERATLSCRASQSVSSSYLAWYQQKPGQAPRLLIYGASSRATGIPDRFSGSGSGTDFTLTISRLEPEDFAVYYCQQSSSHPFTFGGGTKVEIK",,,no binding (tested: 100 nM),no binding (tested: 1 ug/ml),,0.174 nM,5 fold over background,1 fold over background,1 fold over background,no binding (tested: Log nM about 0.8 (about 7 nM)),0.203 nM,no binding (tested: Log nM about 1.8 (about 60 nM)),,,,,,,,
